Experimental data taken from patent publication US20250019652A1, “PRODUCTION METHOD FOR SHEET-LIKE RETINAL TISSUE” (RIKEN, priority 2021, published 2025).

Key:
Format in all cases: cell-based, human
[1] = tested on: Rx::Venus-sorted cells (KhES-1-derived NR, Day 25); assay: Search of factor that maintains property of retina at preparation into sheet again (Example 18); set-up: expression intensity of Rx::Venus, concentration dependency: dose or concentration left out as unconfirmed; conditions: for expression intensity of Rx::Venus: compared with PBS control, 10 days after seeding
Protocol: (§1) The aggregates (NR) of Day 25 from initiation of the suspension culture prepared in Example 1 were washed with PBS, and a neuronal cell dispersion solution (manufactured by FUJIFILM Wako Pure Chemical Corp.) was added. After incubation at 37° C., they were dispersed into single cells by pipetting, and sorting was carried out with Rx::Venus as an index using Cell sorter ARIAII (Becton, Dickinson and Company).
3 days after seeding, the medium was similarly replaced so as to maintain the concentrations of the low-molecular compounds or the proteins described in Tables 1 and 2. […] 10 days after seeding, fixation was performed in 4% PFA, and the evaluation of the cells after sorting was conducted with Rx::Venus as an index under a fluorescence microscope (BZ-X810 manufactured by Keyence Corp.).

[2] = tested on: sorted or unsorted dispersed NR cells (KhES-1 Rx::Venus); assay: Aggregate reforming by addition of FGF8 and retinal differentiation, microscopy and FACS (Example 19)
Protocol: as §1, with “24” for “25”, “Company). The cells after sorting were seeded at 2.0 to 5.0×10^4 cells per well to a low adhesive V plate. As controls, a group that was not supplemented with FGF8 (FGF8−) and a group that was not sorted (unsorted) were also established.” for “Company).”
Medium replacement was carried out once every 3 to 4 days. FGF8 was also added at the time of medium replacement. […] RPE cells were partially observed in the sorted FGF8− group.
Further, the aggregates of Culture Day 54 for aggregate reforming (Day 30 after reseeding) were washed with PBS and dispersed into single cells using a neuronal cell dispersion solution (manufactured by FUJIFILM Wako Pure Chemical Corp.). Then, formaldehyde fixation was performed using Fixation buffer (Becton, Dickinson and Company). Thereafter, after washing with Perm/Wash buffer (Becton, Dickinson and Company), staining was performed with anti-CHX10-Alexa Fluor 647 conjugate antibody (Santa Cruz Biotechnology), anti-Sox2-BV421 antibody (BioLegend, Inc.), anti-Ki67-Alexa Fluor 647 conjugate antibody (Becton, Dickinson and Company), and anti-CRX-Alexa Fluor 647 conjugate antibody (Santa Cruz Biotechnology). After washing of the antibodies with Perm/Wash buffer (Becton, Dickinson and Company), measurement was performed using FACSCantoII (BD Biosciences), and analysis was conducted using FlowJo. As a control, neural retinal tissue having the same number of differentiation days that was not reorganized was also established.

[3] = tested on: Rx::Venus-sorted NR cells on Transwell (KhES-1-derived); assay: Effect of FGF8 at preparation into sheet again, microscopy and FACS (Example 20)
Protocol: as §1, with “24” for “25”, “Company). […] As a control, a group that was not supplemented with FGF8 (FGF8−) was also established.” for “Company).”
Medium replacement was carried out once every 3 to 4 days. FGF8 was also added at the time of medium replacement. Sheets after a lapse of differentiation for 63 days and 40 days after reseeding were observed under a fluorescence stereo microscope (FIGS. 60 and 61). For FACS analysis, the aggregates of Differentiation Day 64 and Day 41 after reseeding were washed with PBS and dispersed into single cells using a neuronal cell dispersion solution (manufactured by FUJIFILM Wako Pure Chemical Corp.). Then, formaldehyde fixation was performed using Fixation buffer (Becton, Dickinson and Company).
Thereafter, after fixation using Fixation buffer (Becton, Dickinson and Company) and washing with Perm/Wash buffer (Becton, Dickinson and Company), staining was performed with anti-CHX10-Alexa Fluor 647 conjugate antibody (Santa Cruz Biotechnology), anti-Sox2-BV421 conjugate antibody (BioLegend, Inc.), anti-Ki67 antibody (Becton, Dickinson and Company), and anti-CRX-Alexa Fluor 647 conjugate antibody (Santa Cruz Biotechnology). After washing of the antibodies with Perm/Wash buffer (Becton, Dickinson and Company), measurement was performed using FACSCantoII (BD Biosciences), and analysis was conducted using FlowJo. As a control, neural retinal tissue having the same number of differentiation days that was not reorganized was also established (FIG. 62).

[4] = tested on: CD39-sorted cells of Islet-1 KO KhES-1-derived aggregates (NR); assay: Islet-1 KO hESC-retina sheet prepared by sorting with CD39 and addition of FGF8 (Example 26); conditions: 50 ng/mL FGF8; Day 73
Protocol: For aggregates differentiated with 300 nM SAG at the start of suspension culture (at the start of differentiation, dd0), the aggregates (NR) of Day 25 from initiation of the suspension culture were dispersed into single cells and stained at 37° C. for 15 minutes using anti-CD39-APC conjugate antibody (Miltenyi Biotec). Then, sorting was carried out with CD39-APC as an index using Cell sorter ARIAII (Becton, Dickinson and Company). The cells after sorting were seeded at 8.0×10^5 cells per well into 12-well Transwell coated with collagen gel. […] As a control, a group that was not supplemented with FGF8 (FGF8−) was also established.
Medium replacement was carried out once every 3 to 4 days. FGF8 was also added at the time of medium replacement.

[5] = tested on: KhES-1 Rx::Venus aggregates; assay: Differentiation with or without BMP4: retinal tissue versus brain organoid (Example 23); conditions: group supplemented with BMP4
Protocol: Human ES cells (KhES-1 strain (Non Patent Literature 3)) genetically engineered so as to have Rx::Venus reporter gene were cultured under feeder-free conditions in accordance with the method described in “Scientific Reports 4, 3594 (2014)”. As a feeder-free medium, StemFit medium (trade name: AK03N, manufactured by Ajinomoto Co., Inc.) was used, and as a scaffold in place of feeder cells, Laminin511-E8 (trade name, manufactured by Nippi, Inc.) was used. 300 nM SAG was added at the start of suspension culture (at the start of differentiation), and brain organoid was prepared on Day 3 from initiation of the suspension culture without adding BMP4. As a control, a group supplemented with BMP4 was established. Fluorescence microscope observation was performed as to the brain organoid of Day 26 from initiation of the suspension culture prepared in this way (FIG. 70). […] Further, these aggregates were fixed in 4% PFA. Sections were prepared and stained with DAPI and anti-FoxG1 antibody (Takara Bio Inc.), and observation was performed under a fluorescence microscope (BZ-X810 manufactured by Keyence Corp.). […] On the other hand, in the group that was not supplemented with BMP4, FoxG1 positive was confirmed, and it was confirmed that brain organoid was differentiated (FIG. 71).

[6] = sorted group supplemented with FGF8
[7] = versus neural retinal tissue not reorganized

Row | Molecule | expression intensity of Rx::Venus [1] | expression intensity of Rx::Venus, concentration dependency ([1]; FGF8) | percentage of Chx10-positive and Sox2-positive neural retinal progenitor cells [2, 6] | percentage of Crx-positive photoreceptor progenitor cells [2, 6] | RPE cells or Rx::Venus-negative masses ([2]; sorted, FGF8+, Day 10 after reseeding) | Rx::Venus positive rate (FACS) ([2]; unsorted group supplemented with FGF8, Day 30 after reseeding) | Rx::Venus-negative cell masses or RPE cells ([2]; unsorted, FGF8+, Day 10 after reseeding) | Rx::Venus positive rate (FACS) ([3]; group supplemented with FGF8, Day 41 after reseeding) | black RPE in sheet ([3]; sheets supplemented with FGF8) | distribution of Rx::Venus-positive cells in sheet ([3]; sorted then supplemented with FGF8, 40 days after reseeding) | percentage of Chx10-positive and Sox2-positive neural retinal progenitor cells or Crx-positive photoreceptor progenitor cells [3, 7] | percentage of Rx::Venus-positive and Ki67-positive proliferative retinal cells [3, 7] | distribution of Crx::Venus cell populations in sheet [4] | FoxG1 staining [5] | differentiated tissue (Rx::Venus) ([5]; Day 26)
1 | FGF4: fibroblast growth factor, FGF signaling pathway agonist (protein, UniProt P08620 31-206, looked up) Fibroblast growth factor 4: APTAPNGTLEAELERRWESLVALSLARLPVAAQPKEAAVQSGAGDYLLGIKRLRRLYCNVGIGFHLQALPDGRIGGAHADTRDSLLELSPVERGVVSIFGVASRFFVAMSSKGKLYGSPFFTDECTFKEILLPNNYNAYESYKYPGMFIALSKNGKTKKGNRVSPTMKVTHFLPRL | high expression intensity of Rx::Venus |  |  |  |  |  |  |  |  |  |  |  |  |  | 
2 | FGF8: fibroblast growth factor, FGF signaling pathway agonist (protein, UniProt P55075 23-233, looked up) Fibroblast growth factor 8: QEGPGRGPALGRELASLFRAGREPQGVSQQHVREQSLVTDQLSRRLIRTYQLYSRTSGKHVQVLANKRINAMAEDGDPFAKLIVETDTFGSRVRVRGAETGLYICMNKKGKLIAKSNGKGKDCVFTEIVLENNYTALQNAKYEGWYMAFTRKGRPRKGSKTRQHQREVHFMKRLPRGHHTTEQSLRFEFLNYPPFTRSLRGSQRTWAPEPR | high expression intensity of Rx::Venus | the highest expression intensity of Rx::Venus | high | tended to be low | RPE cells or Rx::Venus-negative masses were not observed | the Rx::Venus positive rate tended to be high | these cell masses were observed to decrease | ≥ 95% | hardly observed | Rx::Venus-positive cells were uniformly present in the whole wells | equivalent as compared with neural retinal tissue | tended to be large as compared with neural retinal tissue | uniformly present |  | 
3 | BMP4: exogenous human recombinant BMP4, BMP signaling pathway agonist (protein, UniProt P12644 293-408, looked up) Bone morphogenetic protein 4: SPKHHSQRARKKNKNCRRHSLYVDFSDVGWNDWIVAPPGYQAFYCHGDCPFPLADHLNSTNHAIVQTLVNSVNSSIPKACCVPTELSAISMLYLDEYDKVVLKNYQEMVVEGCGCR |  |  |  |  |  |  |  |  |  |  |  |  |  | FoxG1 was negative | Rx::Venus-positive retinal tissue was observed to be differentiated
